Test: soluble on expression in E. coli; label from the status in PepcDB or PDB records

Row | Sequence | soluble on expression in E. coli
1 | MSLRILYLDPFSGISGDMFLGLLVDLGVDPEKIKSRLEKLNVEFDLVVKKVNKKGVTATKVDVVFPRKEHHEDHIVSDHDHHHHHGRHLSEIVEVLSRLEDPLKEKAIRMFEALAEAESKIHGLSKEKVHFHEVGAMDAVIEIAGAVVGLELLEVEKVFCGTVNTGSGFVMTEHGRYPVPAPATAELLKGIPIYMDQKVRAELVTPTGAVILKILVDEFRTPILRVEKVGYGAGTMDLEIPNVLRGYLGYIEPSERTGDVLIETNVDDMNPQLFGHLMERLFEAGAKDVFFTPIYMKKNRPAVKVSVLCHESKKDEILKLLFKESTSIGARVFYPEKVEATRTLKTVKTEYGEIPVKIASFDSEIVNISPEYEACKKVAQEKGIPLKEVYRAVYKSVSEVRNDVEGHHHHHH | soluble
2 | DLKILDPIWTTAYITRNHGYMVYDTLFSLDAQGNIQPQMVDTVTTSEDGLMVTMTLRDGLVWHDGAPVTAADCVASINRWGSKDAMGQKMMSFVESLEATDDKTITFKLSTPTGLVTLALAKPSSNVPFMMPERVASTPSSEQIADYTGSGPFVFRQ | not soluble
3 | MGSDKIHHHHHHMSLIFDIKRYAINDGPGIRITLFMKGCPLSCIWCHNPEGIRNGKDKLYTAKKCLGCGTCLKVCPNGALTLTPEGIITDKQKCVLCGRCAEECPAMAIEISGTEYTAEYLMHEIEKEIPFMDQSGGGVTFCGGEPLLHPEFLIDILKRCGQQGIHRAVDTTLLARKETVDEVMRNCELLLIDLKSMDSTVHQTFCDVPNELILKNIRRVAEADFPYYIRIPLIEGVNADEKNIKLSAEFLASLPRHPEIINLLPYHDIGKGKHAKLGSIYNPKGYKMQTPSEEVQQQCIQILTDYGLKATIGG | not soluble
4 | MAAKDRIQAIKQMVANDKKVTVSNLSGIFQVTEETIRRDLEKLEDEGFLTRTYGGAVLNTAVLTENIHFYKRASSFYEEKLLIARKALPFIDNKTTMAADSSSTVMELLKLLQDRSDLTLLTNSAEAIHVLAQSEIKVVSTGGELNKNTLSLQGRITKEIISRYHVDIMVMSCKGLDINSGALDSNEAEAEIKKTMIRQATEVALLVDHSKFDRKAFVQLADFSHINYIITDKSPGAEWIAFCKDNNIQLVWLEHHHHHH | soluble
5 | MGSDKIHHHHHHMSLSRIHGDDDAFGARLDFAVNVAEAQPPTWLIQRLQSAVTDLAAYPHSSDLAAVTAMIARYHGVSEDHVLVLSGVSEGFAMLPQLKPENAVIIHPGFSEPDIVLTDAQIPVHRCILAPPFELSFENIPANADLVVIGNPTNPTGVVHSKELLAQLCAPGRTVVIDEAFLDIVGEQYSMIDQLDAVEGELIIFRSLTKTWSIAGLRVGYAIARPETLARLSAYRRHWPMGTLQLRAIEAVFDTGIMQLPERRAEMIAQRTEMIEMLTNSGFRCVSSSQAPYILVRPPSTQPEELRMALKAQGIAVRRCDTFPGLEFSYWRLAVRPRDQVQRLLTAIDNIIGAKK | not soluble
6 | SGTNDAEDCCLSVTQKPIPGYIVRNFHYLLIKDGCRVPAVVFTTLRGRQLCAPPDQPWVERIIQRLQRTSAKMKRRSS | soluble
7 | MSLDLEDKQQKLEQAILGALDEVQVLNEDRILRRYLDLIKATLRTNFYQPDGNGQNKSYFSFKFNPKAIPELPRPVPKYEIFVYSPRVEGVHLRGGKVARGGLRWSDREEDFRTEVLGLVKAQQVKNAVIVPVGAKGGFVPRRLPLGGSRDEIQAEAIACYRIFISGLLDITDNLKEGEVVPPANVVRHDEDDPYLVVAADKGTATFSDIANGIAAEYGFWLGDAFASGGSAGYDHKGMGITAKGAWVSVQRHFRERGIDVQKDNISVIGIGDMAGDVFGNGLLMSDKLQLVAAFNHMHIFIDPNPDAASSFVERQRLFNLPRSSWADYDAKLISAGGGIFLRSAKSIAITPEMKARFDIQADRLAPTELIHALLKAPVDLLWNGGIGTYVKSSKETHADVGDKANDGLRVDGRELRAKVVGEGGNLGMTQLARVEFGLHGGANNTDFIDNAGGVDCSDHEVNIKILLNEVVQAGDMTEKQRNALLVKMTDAVGALVLGNNYKQTQALSLAQRRARERIAEYKRLMGDLEARGKLDRALEFLPSDEELAERISAGEGHHHHHH | not soluble
8 | MFALVLFVCYLDGGCEDIVVDVYNTEQQCLYSMSDQRIRQGGCFPIEDFIDGFWRPAQEYGDFLEHHHHHH | soluble
9 | MRMKQTIPSSYVGLKINEWYTHIRQFHVAEAERVKLEVEREIEDMEEDQDLLLYYSLMEFRHRVMLDYIKPFGEDTSQLEFSELLEDIEGNQYKLTGLLEYYFNFFRGMYEFKQKMFVSAMMYYKRAEKNLALVSDDIEKAEFAFKMAEIFYNLKQTYVSMSYAVQALETYQMYETYTVRRIQCEFVIAGNYDDMQYPERALPHLELALDLAKKEGNPRLISSALYNLGNCYEKMGELQKAAEYFGKSVSICKSEKFDNLPHSIYSLTQVLYKQKNDAEAQKKYREGLEIARQYSDELFVELFQFLHALYGKNIDTESVSHTFQFLEEHMLYPYIEELAHDAAQFYIENGQPEKALSFYEKMVHAQKQIQRGDCLYEI | not soluble
10 | MSLDIAQIALHQLIKRDEQTLDMVLRDSLLPTNAAVEDMMAELHRVYSAKSKAYGLFNEQSELADALRACRKGDEDFLSFSRAATGRLRDELAKYPFAEGGIVLFCQYRYLAVEYLLISVLNSCNSMRVNEQLDISTTHYLDINHADIIARIDLTEWETNPESTRYLTFLKGRVGRKVSDFFMDFLAASEGLDTKAQNRGLLKAVDEYCDEAQLDKNERQNYRQQVHSYCTEQLQSGEEIELASLSQELPPLGEKTFQQFSADQGYELEESFPADRGTLRQLTKFAGSGGGISLNFDALLLGERIFWDPATDTLTIKGTPPNLRDQLQRRTSGGKQLEHHHHHH | not soluble
11 | QTQTVAIIGMGSRGLSILEQLIGMSRHADQQPLQIEVFDPQPPGSGLHSAQQPDYLMLNTMAGQLSAFSSAFPACEPAGWTFLQWCGAQDVRLDERGHVSTNGLGRPVAFGDFVPRALLGRYLQHSYRFLLQQCPAHVQVRHYAERVIKCRSRSDAPGFRLRSLTREMNVDALFLTVGHASSATELQDVGATVAIEGLGLTAMDTLASLTQGRGGRYVRDAGFAGWRYLPSGREPRVFMYSRSGLPFHARPHWYPTRHAALPRLFFTAVAIGDLRKQNGGGQLDFQADVLPLIKDEMRAVFYQTKVRLDAPRQLEAVQRTLREAVARPALFARLAEQWGEFDPEQWLTTQRWTGEAGTYGQWFVEWIKRDLALSRLGTAHSPIRQALEVWRDCRDLLRLVADRNGLTESSTLAFYDTWAGLGNRLVGGPQKERHEDLLALIDAGVVTVLAPMSDAQQADSRFDSVMAARVAPSGLSGNRSALLDDLREQGL | not soluble
12 | MIEQCWSEIQEEQSPTSQIGQLRVQGLRDKRVIVEYIPLILKTFLLSKTSGVGPLIIPVRCFTCGKVIGDKYYEFKRRVEAGEDPEKVLDDLGLERYCCRRMLLSHVELIDDIMHYKVY | soluble
13 | MAHHHHHHMDSDLSAEIARIEAELAQDAELRQQQQQLAPQQPPASLFGFGQTAPVQPQQQQQQQLFQTQPPQPQQQPSNPFNVNASPFMPTPQQPDYSQQQQQQQQPIGSAGQAAAQASAPTPIIHSFSKDTDSRSIFIGNLPRGTDGTPTTTPEELVQFFADCGNILNCTVLKDRATGEPKGTAYIEFADYTAMGKAIDTKNNANFKGSTIIVCVSTSPLFSLAGFFG | soluble
14 | MSLDWTCKHHADLTLKELYALLQLRTEVFVVEQKCPYQEVDGLDLVGDTHHLMAWRDGQLLAYLRLLDPVRHEGQVVIGRVVSSSAARGQGLGHQLMERALQAAERLWLDTPVYLSAQAHLQAYYGRYGFVAVTEVYLEDDIPHIGMRRA | soluble
15 | MGSDKIHHHHHHMNYLRLNNITKRFGSFIANDNINLSVASGSIHAILGENGAGKSTLMNIISGLYQPDAGEIYLQEQPIKITSPNEAIKLGIGMIYQHFMLIPKLTVTENIILGIEKTWRLNLEDKQQKIAALSQAYGLEIDPTAKVENLSVGAQQRVEILKVLYRQAKLLILDEPTAVLTPPEVESLIAILRQLASAGNTIIFISHKLEEVMNLCDSVTVLRQGKVVATTSTEAATSQQLATLMVGREVALQLNKSPTLPGEIILSVQNLQVADERNILAVNNVSFELRAGEILGIAGVDGNGQRELADAIAFVRTIKQGKIEFTPKHSSVGYIPEDRQTMGLVLQFSIAQNLILKAFKYLPFCRRFLLQQEAIANRAQAAMQEFDIRASGKDILVSQLSGGNQQKVVLARELALTPALIIAMQPTRGLDVGATIAVQSRILTERDRGAAILYISTELEEVMAMSDRIAVIYRGEFVAILDAATAKVEEIGLLMAGGIN | not soluble
16 | MTKRGLGKGLDALLATSSLAREKQQVASLSQSMSAEGELADLSISNLKPGIYQPRKDLSPEALEELAASIQSQGIIQPIVVRHLPTGGYEIIAGERRWRAAKQAGLKQVPCLIKQVEDRGAIAMALIENIQREDLNAMEEAQALERLQNEFNLTHQQVAEVIGKSRTTVTNLLRLNQLSDDVKRLLETKQLEMGHARALLMLEGEQQVEIAQQVAKKQLTVRQTEQLVKKCLSDPSDAKNVSEDLEIQQLSQNLSEKLAAKVSIVRTPNGKSKVTISLDEPHKLELLIAKLQN | not soluble
17 | MKILWIDLNSSYAHSSLALPALHAQIMTDPSIEWEIVSATINENTGMIVDEIYRHRPDILAATTWLFNHEQLMHVASRVKALLPEACLVLGGPEFLGDNEEFLRKNPFVDCVFRGEGEEVFPQWLTCWNHPEQWHTVPGLCYLTPNKEYKDNGIARVLNFAGLVPPEQSRFFNWSKPFVQLETTRGCFNTCAFCVSGGEKPVRTLSIESIRERLQLIHAHGIKNVRVLDRTFNYNPRRAKELLRLFLEFHPDIRFHLEIHPALLSEELKEELSLLPKGLLHLEAGIQSLREPVLEKSRRMGKLSDALDGLRFLCALPNMETHADLIAGLPLYHLHEIFEDVRTLAGYAAGEIQLESLKLLPGTEMRRRAEELGIKYSPLPPYEVLQTHEISVSELQTARQLSRLLDGFYNTPAWQALTRELILNDEQFLHRFLAYLTKANLIDQPMSLEKRGLILYEFCKQNYPEYQIQAAIAWIEAGMSLKKLPAEKVWTKRQIPPATWNIIYGEYKESLRLCFLPADEKGEHGYWFGFESEIQKASPVFKART | not soluble
18 | MVDKNSLRKLMLLKRAELNDLEKSHLDQKINQKLMAFLITRPTIKNLALYIPIKNEVAFLDNFLDFLKLNKITSCFPSIVDQFNMKFIDQNNNEINPNDIDCFFIPLLAFNKANHRIGFGKGYYDRYLSLTSKKQLKIGIAYDFQYAEFTNDPWDYQLDLIICNGMAGDPLEHHHHHH | soluble
19 | MSSYANHQALAGLTLGKSTDYRDTYDASLLQGVPRSLNRDPLGLKADNLPFHGTDIWTLYELSWLNAKGLPQVAVGHVELDYTSVNLIESKSFKLYLNSFNQTRFNNWDEVRQTLERDLSTCAQGKISVALYRLDELEGQPIGHFNGTCIDDQDITIDNYEFTTDYLENATCGEKVVEETLVSHLLKSNCLITHQPDWGSLQIQYRGRQIDREKLLRYLVSFRHHNEFHEQCVERIFNDLLRFCQPEKLSVYARYTRRGGLDINPWRSNSDFVPSTTRLVRQ | soluble
20 | MGSDKIHHHHHHMKNRDWYTSLVSGLLFPLQERLKDHSTVSVRKALELSQWWNRERLENLQLLKLRHLLAEAEAHVPYYRRIFAEIGFKAAEVSSLADLARLPLLDKPAIRADTEALKSQKARSLRSFNTGGSSGEPLTFYIGRERVSHDVAAKWRATRWWDVDIGDPEMVVWGSPIELGAQDRLRMLRDRLLRTRLFPAFEMSEQKLDRFLGELRAAPPRMFFGYPSALSHIARHAQARGQRMDDLGINVAFVTSERLYDEQRQQISKTFGCPVANGYGGRDAGFIAHECPEGGMHITAEDIIVEIVDRQGVPLPCGEAGEIIVTHLSTAEFPFIRYRTGDIGILDDRICRCGRGLPLLREIQGRSTDFVVAQDGTVMHGLALIYILRELPQISHFKIIQESLNLIHIWVVSGAKLDREITAKIEEEFKARLGQSVEVLIEETTEIPAEKSGKFRYVISKIAGA | not soluble
